Columns and labels:
[1] = system: NIH3T3 cells; assay: FACS binding to parent NIH3T3 cells; settings: for binding to parent NIH3T3 cells (in words): FACS; for NIH3T3 (MFI): Mab 10 μg/ml, Mean Fluorescence Intensity by FACS
Method: (§1) NIH3T3 and NIH3T3-hCXCR4 transfected cells were incubated with 10 μg/ml of monoclonal antibodies 515H7 and 301aE5. The cells were then washed with 1% BSA/PBS/0.01% NaN3. Next, Alexa-labeled secondary antibodies were added to the cells and were allowed to incubate at 4° C. for 20 min. The cells were then washed again two times. Following the second wash, FACS analysis was performed.
as §1, with “NIH3T3-hCXCR4” for “NIH3T3 and NIH3T3-hCXCR4”, “a dose range” for “10 μg/ml”, “antibody c515H7 from 0 μg/ml to 10 μg/ml.” for “antibodies 515H7 and 301aE5.”, “1%BSA/PBS/0.01%” for “1% BSA/PBS/0.01%”
NIH3T3, NIH3T3-hCXCR4 transfected were incubated with 0 to 10 μg/mL of humanized Mabs 515H7 (hz515H7 VH1 D76N VL2, hz515H7 VH1 D76N VL2.1, hz515H7 VH1 D76N VL2.2, hz515H7 VH1 D76N VL2.3) for 20 min at 4° C. in the dark in 100 μl Facs buffer. After 3 washing in Facs buffer, cells were incubated with the secondary antibody, a goat anti-human Alexa 488 (dilution 1/500), for 20 minutes at 4° C. in the dark. After 3 washing in Facs buffer, propidium iodide was added in each well and only viable cells were analyzed by Facs. At least 5000 viable cells were assessed to evaluate the mean value of fluorescence intensity for each condition.

[2] = target: human CXCR4 (Homo sapiens, UniProt P61073); assay: SDF-1-induced calcium release in CHO-CXCR4 cells; assay type: cell-based; design: expressed in transfected cells; settings: Mab 133 nM, SDF-1 100 nM
human CXCR4, sequence (P61073 whole entry): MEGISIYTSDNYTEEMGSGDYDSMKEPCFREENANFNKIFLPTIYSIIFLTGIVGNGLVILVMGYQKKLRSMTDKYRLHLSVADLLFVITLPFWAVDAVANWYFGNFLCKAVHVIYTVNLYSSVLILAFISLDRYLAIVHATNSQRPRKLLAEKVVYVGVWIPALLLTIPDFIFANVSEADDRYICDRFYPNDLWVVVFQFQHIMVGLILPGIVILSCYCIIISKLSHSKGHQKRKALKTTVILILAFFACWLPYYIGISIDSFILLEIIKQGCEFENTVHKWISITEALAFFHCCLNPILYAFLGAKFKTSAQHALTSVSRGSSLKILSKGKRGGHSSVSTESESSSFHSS
Excerpt: This functional assay was designed to monitor CXCR4 receptor signaling via stimulation of the phospholipase C pathway, inducing calcium liberation from intracellular stores from the endoplasmic reticulum.
CHO-K1 cells, stably and constitutively expressing human CXCR4 receptor were obtained upon transfection of naïve CHO-K1 cells (ATCC CCL-61) with a mammalian expression vector carrying the whole coding sequence of human CXCR4 receptor (RefSeq NM_003467). Cells were propagated in complete culture medium [DMEM-Ham's F12 supplemented with 5% fetal calf serum (FCS) and 500 μg/ml of geneticin]. Cells were plated in black 96MW plates at a density of 100,000 cells/well in appropriate culture medium. Cells were starved overnight before conducting the experiments. Cells are loaded with the fluorescent calcium dye (Fluo-4 No Wash, Invitrogen US) in loading buffer [HBSS 1×, HEPES 20 mM, Probenicid acid 25 mM] for 30 min. at 37° C. followed by 30 min. at 25° C. Stimulation by SDF-1 was performed by direct injection into each well. For antagonism experiments, 10 μl of Mab solution are added directly into the loading buffer at least 10 min. before SDF-1. Kinetic fluorescence measurements are performed on a multi-mode fluorescence microplate reader Mithras LB940 (Berthold) using the following settings: excitation at 485 nm, emission at 535 nm, excitation energy at 10000 arbitrary units. Fluorescence in each well is recorded during 0.1 second every second and for a time period of 20 sec. prior SDF-1 injection (basal signal). Then 20 μl of SDF-1 are injected and data recording follows for a time period of 2 min. Each experimental condition is performed in duplicate. Values for each well are first corrected by subtracting the basal fluorescence and the fluorescence emitted by a control well without cells. Relative data are expressed as a percentage of the maximal stimulation obtained by SDF-1 (100 nM).

[3] = system: HIV-1 X4 primary isolate KON; assay: Single cycle neutralization assay in human PBMC, isolate KON; assay type: cell-based; settings: IC for 80% inhibition
[4] = system: HIV-1 X4 primary isolate MN; assay: Single cycle neutralization assay in human PBMC, isolate MN; assay type: cell-based; design: MN % inhibition of infected cells 90 / MN % inhibition of infected cells 80: unit not given here; settings: for MN % inhibition of infected cells 80: IC for 80% inhibition; for MN % inhibition of infected cells 80 / MN % inhibition of infected cells 90: human PBMC; for MN % inhibition of infected cells 90: IC for 90% inhibition
Method: This assay is performed in 36 h using primary isolates KON, MN and 92UG024 concentrated and diluted accordingly to allow the detection 2% infected CD4 T lymphocytes after 2 days of infection.
(§2) Twenty-five microliters of various dilutions of Mabs 515H7, c515H7 and 301aE5 were incubated for 1 h at 37° C. with 25 μl of virus. Human PBMC (25 μl) at 20×10^6 cells/ml were added to the Mab/virus mixture in a 96-well plate (U-bottom, Costar 3599) and cultured for 36 h in RPMI 1640 10% FCS and 20 U/ml IL-2 (R&D Systems, Minneapolis, Minn.).
(§3) After 2 days of culture, HIV-infected lymphocytes were detected by intracellular staining of viral p24 Ag. Cells were fixed and permeabilized using both Cytofix/Cytoperm and Perm/Wash kits (BD Biosciences) according to the manufacturer and stained with a fluorescent anti-p24 Mab (FITC- or PE-anti-p24, clone KC57; Beckman Coulter/Immunotech, Hialeah, Fla.) used at a 1/160 dilution in Perm/Wash solution added for 15 min at 4° C. After washing in PBS with 3% FBS, PBMC were diluted in 300 μl of PBS before flow cytometry analysis (LSRII; BD Biosciences) with DIVA software (BD Biosciences). The percentage of p24-positive cells in the different samples was determined by gating 20,000 events on a living cell population identified by forward- and side-scatter parameters. The living cell subsets were analyzed with the live/dead solution kit (Invitrogen). The p24 Ag-positive value was obtained after subtraction of background events in mock-infected cells.
(§4) The percent of neutralization was defined as the reduction of p24-positive cells compared with control infected wells with no Mab. The neutralizing titer was defined as the concentration of antibody (interpolated between successive dilutions performed in triplicate) that allows a 90% decrease in the percentage of infected cells.

[5] = system: HIV-1 primary isolate 89.6 (dual X4/R5 virus); assay: Single cycle neutralization assay in human PBMC, isolate 89.6; assay type: cell-based
Method: This assay is performed in 36 h using primary isolate 89.6 concentrated and diluted accordingly to allow the detection 2% infected CD4 T lymphocytes after 2 days of infection.
as §2
as §3, with “FL)” for “Fla.)”
as §4

Row | Molecule | binding to parent NIH3T3 cells (in words) [1] | NIH3T3 (MFI) [1] | inhibition of the SDF-1-induced calcium signal (in words) [2] | KON % inhibition of infected cells 80 [3] [µg/mL] | inhibition of HIV-1 X4 MN primary isolate replication in PBMC (in words) [4] | MN % inhibition of infected cells 80 [4] | MN % inhibition of infected cells 90 [4] | inhibition of HIV-1 89.6 primary isolate replication in PBMC (in words) [5]
1 | 515H7: murine anti-CXCR4 monoclonal antibody; light chain variable domain SEQ ID No. 7, heavy chain variable domain SEQ ID No. 8 (antibody, listed as Mus musculus, V domains shown) VH: EVNLVESGGGLVQPGGSLRLSCATSGFTFTDNYMSWVRQPPGKALEWLGFIRNKANGYTTDYSASVRGRFTISRDNSQSILYLQMNALRAEDSATYYCARDVGSNYFDYWGQGTTLTVSS VL: DIVMSQSPSSLAVSAGEKVTMSCKSSQSLFNSRTRKNYLAWYQQKPGQSPKLLIYWASARDSGVPARFTGSGSETYFTLTISRVQAEDLAVYYCMQSFNLRTFGGGTKLEIK | no recognition | 16 | strong inhibition | 8 | able to inhibit | 1.5 | 10 | able to inhibit
2 | c515H7: chimeric antibody 515H7: murine variable domains fused to human Ckappa and IgG1/IgG2/IgG4 constant domains; isotype tested not stated (antibody, V domains shown) VH: EVNLVESGGGLVQPGGSLRLSCATSGFTFTDNYMSWVRQPPGKALEWLGFIRNKANGYTTDYSASVRGRFTISRDNSQSILYLQMNALRAEDSATYYCARDVGSNYFDYWGQGTTLTVSS VL: DIVMSQSPSSLAVSAGEKVTMSCKSSQSLFNSRTRKNYLAWYQQKPGQSPKLLIYWASARDSGVPARFTGSGSETYFTLTISRVQAEDLAVYYCMQSFNLRTFGGGTKLEIK | No binding was detected |  | strong inhibition | 10 | able to inhibit | 1 | 15 | able to inhibit
3 | 301aE5: murine anti-CXCR4 monoclonal antibody; light chain variable domain SEQ ID No. 34, heavy chain variable domain SEQ ID No. 35 (antibody, listed as Mus musculus, V domains shown) VH: QVQLKESGPGLVAPSQSLSITCTVSGFSLTDYGVYWVRQPPGKGLEWLGMIWGDGTTDYNSALKSRLSISKDNSKSQVFLKMNTLQTDDTARYYCARGRQFGFDYWGQGTTLTVSS VL: DIVMSQSPSSLAVSAGEKVTMRCKSSQSLFNSRTRKNYLAWYQQKPGQSPKLLIFWASIRESGVPDRFTGSGSGTDFTLTISSVQAEDLAVYYCKQSYNLRTFGGGTKLEIK | no recognition | 21 | partial inhibition | >150 | able to inhibit | 150 | >150 | able to inhibit

— patent publication US9090686B2, “Antibodies for the treatment of HIV” (Pierre Fabre Medicament, priority 2009, dated 2015)
